Legend:
Test in all cases: purified protein
Assay type in all cases: biochemical, Sorangium cellulosum
Details in all cases: 50 mM Tris-HCl pH 8.0, 30 °C
purified protein [1] = substrate: CC(=O)Oc1ccc([N+](=O)[O-])cc1
purified protein [2] = substrate: CCCC(=O)Oc1ccc([N+](=O)[O-])cc1
purified protein [3] = substrate: CCCCCCCC(=O)Oc1ccc([N+](=O)[O-])cc1
purified protein [4] = substrate: CCCCCCCCCC(=O)Oc1ccc([N+](=O)[O-])cc1
purified protein [5] = substrate: CCCCCCCCCCCC(=O)Oc1ccc([N+](=O)[O-])cc1

B1: r-LipA (Sorangium cellulosum) (protein)
chain: MPADTFTFQADDGRELFVYRWLPDDGARGIFHIAHGMSEHAGRYARLAHALSAAGWAVYANDHRGHGRTARERGELGFFASQGGFQRVVRDLAALIAREQEAHPGLPVVLFGHSMGSSLVQEYLIERGGSIQGAVLSGSSGKPSPLVDAGRLVARAERRRLGERGKSQLLQSMSFDSFNKLFAPARTPFDWLSRDRAEVDGYIADPCCGFPATVSLWIDLLDAMVDIARPERQARIPKDLPVYVFSGSRDPVGGPLRSVTQMIEAYRAAGLRRVTPRIYPGGRHEMLNEINREEVVRDLLAWLDAEVKTEAAPARPARPSAGAAAG
notes: pET-22b(+) NdeI/HindIII, His-tag (C-terminal by vector and stop-less reverse primer), E. coli BL21(DE3), Ni-NTA; tryptic peptides GELGFFASQGGFQR, SVTQMIEAYR; GHSMG at 112-116, Ser114/Asp250/His284
Km (purified protein [1]): 174 ± 6 µM
kcat (purified protein [1]): 29.2 ± 0.977 s⁻¹
kcat/Km (purified protein [1]): 168000 ± 2100 M⁻¹ s⁻¹
Km (purified protein [2]): 366 ± 211 µM
kcat (purified protein [2]): 13.6 ± 0.735 s⁻¹
kcat/Km (purified protein [2]): 37170 ± 128 M⁻¹ s⁻¹
Km (purified protein [3]): 704 ± 26 µM
kcat (purified protein [3]): 3.29 ± 0.114 s⁻¹
kcat/Km (purified protein [3]): 4677 ± 13 M⁻¹ s⁻¹
Km (purified protein [4]): 1664 ± 47 µM
kcat (purified protein [4]): 1.56 ± 0.036 s⁻¹
kcat/Km (purified protein [4]): 940 ± 5 M⁻¹ s⁻¹
Km (purified protein [5]): 1946 ± 59 µM
kcat (purified protein [5]): 1.21 ± 0.032 s⁻¹
kcat/Km (purified protein [5]): 619 ± 2 M⁻¹ s⁻¹
